Measurements taken from US20220242962A1 (APTEVO RESEARCH AND DEVELOPMENT, published 2022).

What was measured:
Full-length Cyno 4-1BB = target: T1, Full-length Cyno 4-1BB (cynomolgus monkey, UniProt Q07011 24-255 (human entry)); assay: binding to cells expressing full length cyno 41BB
T1 construct: on Jurkat or CHO cells; also called FOB006; cynomolgus 4-1BB
T1 chain: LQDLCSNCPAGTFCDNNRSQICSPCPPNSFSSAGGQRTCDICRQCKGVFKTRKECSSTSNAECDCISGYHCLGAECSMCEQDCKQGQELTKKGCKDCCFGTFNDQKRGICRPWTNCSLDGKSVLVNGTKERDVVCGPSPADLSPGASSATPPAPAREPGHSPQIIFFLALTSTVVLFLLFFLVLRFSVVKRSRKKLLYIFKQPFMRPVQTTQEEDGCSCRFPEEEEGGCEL

Full-length Human 4-1BB = target: T2, Full-length Human 4-1BB (human, UniProt Q07011 24-255); assay: binding to cells expressing full length human 41BB
T2 construct: also called FOB005; CD137

binding result (Full-length Cyno 4-1BB): binds
binding result (Full-length Human 4-1BB): binds
B1: Clone 6 anti-41BB murine monoclonal antibody (antibody, V domains shown)
VH: QVQLQQPGAELVKPGASVKLSCKASGYTFTSYWINWVKQRPGQGLEWIGNIYPGSSTTNYNEKFKSKATLTVDTSSSTAYMQLSSLTSDDSAVFYCASFSDGYYAYAMDYWVQGTSVTVSS
VL: DIQMTQTTSSLSASLGDRVTITCRASQDISNYLNWYQQKPDGTVKLLIYYTSRLHSGVPSRFSGGGSGTDYSLTISNLEQEDIATYFCQQGYTLPYTFGGGTKLEIK
notes: hybridoma-derived mouse antibody; also called mAb Clone 6; mouse clone 6
